The data set deals with the molecule itself. In words: crystal structure; hanging-drop vapor diffusion at 20 °C; 10 mg/mL Pvg1p in 100 mM MOPS-NaOH pH 7.4 with 20 mM PEP and 5 mM pNP-β-Gal; well solution with 10 mM zinc chloride; 2.46 Å; dimer in the asymmetric unit.

One protein from article PMC4872226, “A rationally engineered yeast pyruvyltransferase Pvg1p introduces sialylation-like properties in neo-human-type complex oligosaccharide” (Scientific Reports, 2016) can be followed below.

B1: fission yeast pyruvyltransferase Pvg1p (enzyme, Schizosaccharomyces pombe, UniProt Q9UT27 32-401, looked up)
chain: DLQTLKNPSSLTSPSSSTSVDKKKPLFTKSPRNSASCESTITLQSNLLFTYYKHYFAGIKKVALIGFPDHPNKGDSAIYVAEKKLLDALNIEVVYITAQEADYSASELKSIISDIPRDEFALAFHGGGNFGDLYPDHQHLRELVVRDFPSFTTISFPQSVWYNEQQLLEQASILYAENPNITLVTRDRQSYGFAVDAFGKHNEVLLTPDIVFFMGPIPEIREATPITHDVLILARLDHEGGQQHGAEDYYRDTLNAANLTYSVEDWLLWDPPVAQNPDSSFDDRGQARYEAGAEFLASARVVITDRLHAHILSTLMGIPHIVVENSQMGKITNYHNTWLHGCTLDGVSVVVDSVDKALSLLLEWNEAGYF
notes: Pvg1p, pyruvyltransferase of Schizosaccharomyces pombe; the D32-F401 portion (without the predicted N-terminal transmembrane region) was used for crystallization; disulfide bond C68-C373 seen in the crystal structure; Expression plasmid pET32b-pvg1; also called recombinant Pvg1p
Turning to B1, the “stoichiometry N” value is 2.
